Results: the supplement of paper PMC10065799, “High-throughput profiling of sequence recognition by tyrosine kinases and SH2 domains using bacterial peptide display” (eLife, 2023)

molecular target: FGFR3 (UniProt P22607); test: phosphorylation enrichment, bacterial display (enrichment ratio); higher = better substrate or ligand; peptides without Tyr show the background
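Also: 11-residue human phosphosite peptides and single-mutation variants displayed on the E. coli surface, counted by deep sequencing, each peptide's frequency after selection divided by its frequency in the unselected input library; frequency after pTyr selection over input frequency; kinase dosed for 20-30% of maximal phosphorylation in three min.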

FGFR3, sequence (P22607 whole entry, looked up): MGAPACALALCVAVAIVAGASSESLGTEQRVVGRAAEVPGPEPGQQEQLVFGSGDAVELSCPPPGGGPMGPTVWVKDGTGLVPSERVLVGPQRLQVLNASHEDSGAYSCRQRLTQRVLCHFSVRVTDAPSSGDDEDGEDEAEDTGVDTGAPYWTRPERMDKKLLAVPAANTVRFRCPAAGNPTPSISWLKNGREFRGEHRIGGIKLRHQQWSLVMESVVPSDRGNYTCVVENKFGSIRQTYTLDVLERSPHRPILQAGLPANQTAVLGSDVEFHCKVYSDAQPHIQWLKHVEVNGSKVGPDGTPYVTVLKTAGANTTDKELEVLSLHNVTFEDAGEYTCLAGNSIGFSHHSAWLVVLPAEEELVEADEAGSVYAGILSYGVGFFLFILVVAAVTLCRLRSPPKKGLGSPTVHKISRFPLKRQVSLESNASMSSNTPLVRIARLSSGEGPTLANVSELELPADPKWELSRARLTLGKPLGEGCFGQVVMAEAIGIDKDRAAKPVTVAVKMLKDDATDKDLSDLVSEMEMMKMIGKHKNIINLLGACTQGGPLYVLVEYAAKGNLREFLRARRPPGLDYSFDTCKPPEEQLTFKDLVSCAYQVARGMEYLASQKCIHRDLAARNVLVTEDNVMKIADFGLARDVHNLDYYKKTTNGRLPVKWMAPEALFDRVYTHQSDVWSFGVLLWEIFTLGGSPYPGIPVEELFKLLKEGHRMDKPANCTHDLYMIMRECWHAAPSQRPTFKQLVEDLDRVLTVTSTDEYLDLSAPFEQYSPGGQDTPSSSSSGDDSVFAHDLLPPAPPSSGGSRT

Sequence | phosphorylation enrichment
ILTFKYLQKPM [KIT_Y547_YF] | 0.742
MSSLFYANTLF [HOXB7_Y6_YF] | 0.735
KKRSSYGNSSD [SELENOK_Y52_R50S] | 0.476
KLIETYSSKNF [PLP1_Y50_F51S_YF] | 0.46
SHSMRYFFTAV [HLA-C_Y31_D33F] | 0.874
ELELLYLDRNS [NYX_Y284] | 0.634
IIGNGYYFRVF [MYBPC3_Y1135] | 0.79
PQGVGYPPQPQ [EP300_Y2219_Q2223P] | 0.569
LTDLRYKVSGP | 1.13
KTDVHYRSLGG [DYSF_Y1858] | 0.511
GGQVFYNSEFG [FLT4_Y1333_YF] | 0.766
VDFQPYRKHKF [TEX37_Y28_YF] | 0.587
SLIDGYYRLTA [JAK2_Y372] | 1.69
DVVKDYAFVHM [RBM14_Y114] | 2.45
NDEDIYKGLPD [VAV3_Y141] | 0.794
TLQNMYGCDVG [HLA-B_Y123_S121N] | 0.669
FENGEYIIRQG [PRKG1_Y247_YF] | 0.69
QAIDEYEKWLE [MAP9_Y603_N601D] | 1.34
ERWLKYFPNEQ [HS3ST5_Y244_I247N] | 0.632
MDNQEYKDAYT [BRDT_Y331_K336T] | 0.783
HRERPYGGGGG [FUS_Y526_R521H] | 0.449
AVAFLYYKSIG [ADGRL4_Y301_V300L] | 0.796
SWDKRYCEAGC [ITGA2B_Y197_F202C] | 0.541
RLAKRYLIWEC [SCN5A_Y694_Q692K] | 0.812
YRIDHYLGKEM [G6PD_Y202] | 0.654
SVAVPYEPPEV [TP53_Y220_V217A] | 0.944
ALAHEYHGGGG [HBB_Y146_K145E] | 0.361
SSVPDYLAAVD [GLB1_Y154_D151V] | 1.17
PFFTSYPPSPD [GDAP2_Y491_YF] | 0.644

system: Fer (mouse); test: as above

Sequence | phosphorylation enrichment
ILTFKYLQKPM [KIT_Y547_YF] | 0.562
MSSLFYANTLF [HOXB7_Y6_YF] | 3.42
KKRSSYGNSSD [SELENOK_Y52_R50S] | 0.422
KLIETYSSKNF [PLP1_Y50_F51S_YF] | 0.388
SHSMRYFFTAV [HLA-C_Y31_D33F] | 0.619
ELELLYLDRNS [NYX_Y284] | 0.408
IIGNGYYFRVF [MYBPC3_Y1135] | 0.413
PQGVGYPPQPQ [EP300_Y2219_Q2223P] | 0.815
LTDLRYKVSGP | 0.588
KTDVHYRSLGG [DYSF_Y1858] | 0.335
GGQVFYNSEFG [FLT4_Y1333_YF] | 0.53
VDFQPYRKHKF [TEX37_Y28_YF] | 0.463
SLIDGYYRLTA [JAK2_Y372] | 0.427
DVVKDYAFVHM [RBM14_Y114] | 2.58
NDEDIYKGLPD [VAV3_Y141] | 0.534
TLQNMYGCDVG [HLA-B_Y123_S121N] | 0.64
FENGEYIIRQG [PRKG1_Y247_YF] | 0.557
QAIDEYEKWLE [MAP9_Y603_N601D] | 0.581
ERWLKYFPNEQ [HS3ST5_Y244_I247N] | 0.459
MDNQEYKDAYT [BRDT_Y331_K336T] | 0.638
HRERPYGGGGG [FUS_Y526_R521H] | 0.407
AVAFLYYKSIG [ADGRL4_Y301_V300L] | 0.46
SWDKRYCEAGC [ITGA2B_Y197_F202C] | 0.383
RLAKRYLIWEC [SCN5A_Y694_Q692K] | 0.626
YRIDHYLGKEM [G6PD_Y202] | 0.445
SVAVPYEPPEV [TP53_Y220_V217A] | 0.529
ALAHEYHGGGG [HBB_Y146_K145E] | 0.354
SSVPDYLAAVD [GLB1_Y154_D151V] | 0.568
PFFTSYPPSPD [GDAP2_Y491_YF] | 0.507

molecular target: Fes (UniProt P07332); test: as above
Sequence (P07332 whole entry, looked up): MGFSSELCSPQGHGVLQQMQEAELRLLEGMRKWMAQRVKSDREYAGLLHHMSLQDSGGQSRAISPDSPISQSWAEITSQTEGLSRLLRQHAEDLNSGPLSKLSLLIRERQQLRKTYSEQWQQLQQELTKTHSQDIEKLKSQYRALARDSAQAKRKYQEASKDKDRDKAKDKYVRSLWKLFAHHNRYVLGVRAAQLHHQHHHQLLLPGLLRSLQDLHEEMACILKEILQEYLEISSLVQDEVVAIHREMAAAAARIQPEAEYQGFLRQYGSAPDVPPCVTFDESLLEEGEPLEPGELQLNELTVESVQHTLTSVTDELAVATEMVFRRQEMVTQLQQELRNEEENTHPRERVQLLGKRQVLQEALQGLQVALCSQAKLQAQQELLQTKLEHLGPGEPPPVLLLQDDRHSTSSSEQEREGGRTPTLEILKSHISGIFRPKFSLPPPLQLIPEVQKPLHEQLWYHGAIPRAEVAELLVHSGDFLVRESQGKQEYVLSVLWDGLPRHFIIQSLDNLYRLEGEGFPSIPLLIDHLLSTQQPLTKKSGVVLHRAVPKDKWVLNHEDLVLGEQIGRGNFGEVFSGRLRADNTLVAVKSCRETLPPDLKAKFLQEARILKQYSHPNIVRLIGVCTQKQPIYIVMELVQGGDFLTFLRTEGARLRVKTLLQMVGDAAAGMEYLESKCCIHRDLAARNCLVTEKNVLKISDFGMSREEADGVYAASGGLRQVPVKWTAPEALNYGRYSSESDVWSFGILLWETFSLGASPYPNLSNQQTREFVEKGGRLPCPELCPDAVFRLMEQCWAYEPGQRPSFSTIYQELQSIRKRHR

Sequence | phosphorylation enrichment
ILTFKYLQKPM [KIT_Y547_YF] | 1.29
MSSLFYANTLF [HOXB7_Y6_YF] | 1.19
KKRSSYGNSSD [SELENOK_Y52_R50S] | 0.508
KLIETYSSKNF [PLP1_Y50_F51S_YF] | 0.996
SHSMRYFFTAV [HLA-C_Y31_D33F] | 1.3
ELELLYLDRNS [NYX_Y284] | 0.904
IIGNGYYFRVF [MYBPC3_Y1135] | 1.16
PQGVGYPPQPQ [EP300_Y2219_Q2223P] | 0.904
LTDLRYKVSGP | 1.11
KTDVHYRSLGG [DYSF_Y1858] | 0.515
GGQVFYNSEFG [FLT4_Y1333_YF] | 1.11
VDFQPYRKHKF [TEX37_Y28_YF] | 0.639
SLIDGYYRLTA [JAK2_Y372] | 0.926
DVVKDYAFVHM [RBM14_Y114] | 0.933
NDEDIYKGLPD [VAV3_Y141] | 1.21
TLQNMYGCDVG [HLA-B_Y123_S121N] | 1.2
FENGEYIIRQG [PRKG1_Y247_YF] | 1.07
QAIDEYEKWLE [MAP9_Y603_N601D] | 1.41
ERWLKYFPNEQ [HS3ST5_Y244_I247N] | 1.12
MDNQEYKDAYT [BRDT_Y331_K336T] | 1.33
HRERPYGGGGG [FUS_Y526_R521H] | 0.714
AVAFLYYKSIG [ADGRL4_Y301_V300L] | 1.42
SWDKRYCEAGC [ITGA2B_Y197_F202C] | 0.887
RLAKRYLIWEC [SCN5A_Y694_Q692K] | 1.06
YRIDHYLGKEM [G6PD_Y202] | 0.909
SVAVPYEPPEV [TP53_Y220_V217A] | 1.31
ALAHEYHGGGG [HBB_Y146_K145E] | 0.461
SSVPDYLAAVD [GLB1_Y154_D151V] | 1.19
PFFTSYPPSPD [GDAP2_Y491_YF] | 1.15

molecular target: Fyn (UniProt P06241); test: as above
Sequence (P06241 whole entry, looked up): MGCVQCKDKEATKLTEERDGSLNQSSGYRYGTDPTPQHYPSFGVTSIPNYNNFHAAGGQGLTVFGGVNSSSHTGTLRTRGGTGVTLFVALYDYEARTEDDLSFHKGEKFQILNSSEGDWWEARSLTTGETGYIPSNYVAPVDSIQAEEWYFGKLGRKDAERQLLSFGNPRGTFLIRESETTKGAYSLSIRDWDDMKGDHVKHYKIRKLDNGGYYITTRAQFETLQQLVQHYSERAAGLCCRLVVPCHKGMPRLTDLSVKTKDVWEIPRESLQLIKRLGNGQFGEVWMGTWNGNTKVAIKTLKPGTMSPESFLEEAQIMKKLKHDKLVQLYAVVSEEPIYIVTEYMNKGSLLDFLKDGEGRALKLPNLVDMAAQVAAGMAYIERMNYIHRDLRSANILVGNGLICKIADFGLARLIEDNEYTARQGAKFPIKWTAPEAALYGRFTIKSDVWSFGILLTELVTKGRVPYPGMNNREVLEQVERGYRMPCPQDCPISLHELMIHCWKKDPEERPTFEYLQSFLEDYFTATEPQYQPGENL

Sequence | phosphorylation enrichment
ILTFKYLQKPM [KIT_Y547_YF] | 0.579
MSSLFYANTLF [HOXB7_Y6_YF] | 0.905
KKRSSYGNSSD [SELENOK_Y52_R50S] | 0.438
KLIETYSSKNF [PLP1_Y50_F51S_YF] | 0.504
SHSMRYFFTAV [HLA-C_Y31_D33F] | 0.53
ELELLYLDRNS [NYX_Y284] | 0.494
IIGNGYYFRVF [MYBPC3_Y1135] | 0.327
PQGVGYPPQPQ [EP300_Y2219_Q2223P] | 0.564
LTDLRYKVSGP | 0.537
KTDVHYRSLGG [DYSF_Y1858] | 0.364
GGQVFYNSEFG [FLT4_Y1333_YF] | 0.479
VDFQPYRKHKF [TEX37_Y28_YF] | 0.45
SLIDGYYRLTA [JAK2_Y372] | 0.467
DVVKDYAFVHM [RBM14_Y114] | 0.419
NDEDIYKGLPD [VAV3_Y141] | 0.879
TLQNMYGCDVG [HLA-B_Y123_S121N] | 0.586
FENGEYIIRQG [PRKG1_Y247_YF] | 0.572
QAIDEYEKWLE [MAP9_Y603_N601D] | 0.66
ERWLKYFPNEQ [HS3ST5_Y244_I247N] | 0.62
MDNQEYKDAYT [BRDT_Y331_K336T] | 0.589
HRERPYGGGGG [FUS_Y526_R521H] | 0.454
AVAFLYYKSIG [ADGRL4_Y301_V300L] | 0.417
SWDKRYCEAGC [ITGA2B_Y197_F202C] | 0.454
RLAKRYLIWEC [SCN5A_Y694_Q692K] | 0.375
YRIDHYLGKEM [G6PD_Y202] | 0.757
SVAVPYEPPEV [TP53_Y220_V217A] | 0.486
ALAHEYHGGGG [HBB_Y146_K145E] | 0.361
SSVPDYLAAVD [GLB1_Y154_D151V] | 0.582
PFFTSYPPSPD [GDAP2_Y491_YF] | 0.498
